Assay results as given in paper PMC5302815.

Biological target: T1, FinR (Pseudomonas aeruginosa PAO1) (UniProt Q9HYK6)
T1 sequence: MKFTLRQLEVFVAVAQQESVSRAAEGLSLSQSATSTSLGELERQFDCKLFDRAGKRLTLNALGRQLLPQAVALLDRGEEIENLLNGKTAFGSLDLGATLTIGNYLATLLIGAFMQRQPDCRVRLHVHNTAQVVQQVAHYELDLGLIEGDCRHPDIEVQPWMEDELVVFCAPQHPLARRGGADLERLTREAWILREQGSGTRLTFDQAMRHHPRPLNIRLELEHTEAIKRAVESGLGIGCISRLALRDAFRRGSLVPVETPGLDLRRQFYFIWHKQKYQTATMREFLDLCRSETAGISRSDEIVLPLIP
Assay: EMSA
Settings: EMSA: 20 mM Tris-HCl pH 8.0, 50 mM KCl, 4 mM MgCl2, 0.5 mM EDTA, 0.02 mg/ml BSA, 5 mM DTT, 10% glycerol, 200 ng poly(dI-dC), 3 fmol probe in 25 ul, 25 C …

Sequence | binding
CGATATCGTGTTATCCCATATCCATATTCTGGATAAGCATTATCCAGACAATTCATTTTGCGGATATTTTGGCAACCGATAAAATGCCGCGCAACTGCGTCACGTCTGCTGCTGTTGGTGTGCGCCCGCGTTTTCCTAGGAGTCTTTGATGAGCAATCTGTACACCGAGCGCGTTCTCAGCGTGCACCACTGGAACGACACCCTGTTCAGCT (double strand) [EBI61-EBI70 fragment (with FinR site)] | binds
AGACGCTCTCCTGCTGGGCCACGGCGACGAACACCTCGAGCTGGCGGAGGGTGAATTTCATCCAGGCTTCCTCGTCTAGAGCGAAAGGCCCCGCGACATTTTGCCGTTCCGTCGGCGGGGTTGGCTCGGTTATCCTTGCGCCCCGTCCGCGGGAGCGATGGGAGCCCTCGGCGGCCGGCGGCCGACCGATATCGTGTTATCCC (double strand) [EBI62-EBI69 fragment (without FinR site)] | no binding
